From US6534281

What was measured:
human proinsulin (human) [1] = target: human proinsulin (human) (UniProt P01308); assay: sandwich immunoassay, two-step, against C-peptide calibration; proinsulin 400 ng/ml; 9101 on particles, labeled antibody 9103
human proinsulin (human) [2] = target: human proinsulin (human) (UniProt P01308); assay: sandwich immunoassay, one-step, against C-peptide calibration; proinsulin 50 ng/ml; 9101 on particles, labeled antibody 9103
human proinsulin (human) [3] = target: human proinsulin (human) (UniProt P01308); assay: sandwich immunoassay, two-step, against C-peptide calibration; proinsulin 50 ng/ml; 9101 on particles, labeled antibody 9103
human C-peptide (human) [4] = assay: ELISA on immobilized C-peptide; labeled antibody 10 ug/ml, free C-peptide 0 ug/ml
human C-peptide (human), sequence (peptide, as listed by the source): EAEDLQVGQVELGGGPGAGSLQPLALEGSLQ

human proinsulin (human) [5] = target: human proinsulin (human) (UniProt P01308); assay: sandwich immunoassay, one-step, against C-peptide calibration; proinsulin 200 ng/ml; 9101 on particles, labeled antibody CPT-3-F11
human C-peptide (human) [6] = assay: ELISA on immobilized C-peptide; labeled antibody 1.0 ug/ml, free C-peptide 1.0 ug/ml
[7] = target: modified C-peptide (human C-peptide having Arg-Arg bound to its N-terminal and Lys-Arg bound to its C-terminal) (human); assay: sandwich immunoassay, two-step, against C-peptide calibration; modified C-peptide 5 ng/ml; 9101 on particles, labeled antibody CPT-3F-11
modified C-peptide (human C-peptide having Arg-Arg bound to its N-terminal and Lys-Arg bound to its C-terminal) (human), sequence (peptide, as listed by the source): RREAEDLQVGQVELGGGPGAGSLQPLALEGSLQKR

human C-peptide (human) [8] = assay: ELISA on immobilized C-peptide; labeled antibody 0.1 ug/ml, free C-peptide 0 ug/ml (reference)
human C-peptide (human) [9] = assay: ELISA on immobilized C-peptide; labeled antibody 1.0 ug/ml, free C-peptide 10 ug/ml
[10] = target: modified C-peptide (human C-peptide having Arg-Arg bound to its N-terminal and Lys-Arg bound to its C-terminal) (human); assay: sandwich immunoassay, two-step, against C-peptide calibration; modified C-peptide 5 ng/ml; 9101 on particles, labeled antibody 9103
human C-peptide (human) [11] = assay: ELISA on immobilized C-peptide; labeled antibody 10 ug/ml, free C-peptide 0 ug/ml (reference)
human C-peptide (human) [12] = assay: sandwich immunoassay, one-step; 9101 on particles, labeled antibody 9103
human proinsulin (human) [13] = target: human proinsulin (human) (UniProt P01308); assay: sandwich immunoassay, one-step, against C-peptide calibration; proinsulin 400 ng/ml; 9101 on particles, labeled antibody CPT-3-F11
human C-peptide (human) [14] = assay: ELISA on immobilized C-peptide; labeled antibody 10 ug/ml, free C-peptide 10 ug/ml
human C-peptide (human) [15] = assay: ELISA on immobilized C-peptide; labeled antibody 0.1 ug/ml, free C-peptide 0.1 ug/ml
human C-peptide (human) [16] = assay: ELISA on immobilized C-peptide; labeled antibody 0.0 ug/ml (blank), free C-peptide 0 ug/ml
[17] = target: modified C-peptide (human C-peptide having Arg-Arg bound to its N-terminal and Lys-Arg bound to its C-terminal) (human); assay: sandwich immunoassay, one-step, against C-peptide calibration; modified C-peptide 5 ng/ml; 9101 on particles, labeled antibody 9103
human C-peptide (human) [18] = assay: ELISA on immobilized C-peptide; labeled antibody 0.1 ug/ml, free C-peptide 0 ug/ml
human C-peptide (human) [19] = assay: ELISA on immobilized C-peptide; labeled antibody 1.0 ug/ml, free C-peptide 0 ug/ml (reference)
human proinsulin (human) [20] = target: human proinsulin (human) (UniProt P01308); assay: sandwich immunoassay, two-step, against C-peptide calibration; proinsulin 200 ng/ml; 9101 on particles, labeled antibody 9103
human C-peptide (human) [21] = assay: ELISA on immobilized C-peptide; labeled antibody 1.0 ug/ml, free C-peptide 0.1 ug/ml
human C-peptide (human) [22] = assay: ELISA on immobilized C-peptide; labeled antibody 0.1 ug/ml, free C-peptide 10 ug/ml
human C-peptide (human) [23] = assay: sandwich immunoassay, two-step; 9101 on particles, labeled antibody 9103
human proinsulin (human) [24] = target: human proinsulin (human) (UniProt P01308); assay: sandwich immunoassay, two-step, against C-peptide calibration; proinsulin 50 ng/ml; 9101 on particles, labeled antibody CPT-3-F11
human C-peptide (human) [25] = assay: ELISA on immobilized C-peptide; labeled antibody 0.0 ug/ml (blank), free C-peptide 0.1 ug/ml
human C-peptide (human) [26] = assay: sandwich immunoassay, two-step; 9101 on particles, labeled antibody CPT-3F-11
human C-peptide (human) [27] = assay: ELISA on immobilized C-peptide; labeled antibody 0.0 ug/ml (blank), free C-peptide 1.0 ug/ml
human proinsulin (human) [28] = target: human proinsulin (human) (UniProt P01308); assay: sandwich immunoassay, two-step, against C-peptide calibration; proinsulin 200 ng/ml; 9101 on particles, labeled antibody CPT-3-F11
[29] = target: modified C-peptide (human C-peptide having Arg-Arg bound to its N-terminal and Lys-Arg bound to its C-terminal) (human); assay: sandwich immunoassay, one-step, against C-peptide calibration; modified C-peptide 5 ng/ml; 9101 on particles, labeled antibody CPT-3F-11
human C-peptide (human) [30] = assay: ELISA on immobilized C-peptide; labeled antibody 0.0 ug/ml (blank), free C-peptide 10 ug/ml
human C-peptide (human) [31] = assay: ELISA on immobilized C-peptide; labeled antibody 0.1 ug/ml, free C-peptide 1.0 ug/ml
human C-peptide (human) [32] = assay: sandwich immunoassay, one-step; 9101 on particles, labeled antibody CPT-3F-11
human proinsulin (human) [33] = target: human proinsulin (human) (UniProt P01308); assay: sandwich immunoassay, one-step, against C-peptide calibration; proinsulin 400 ng/ml; 9101 on particles, labeled antibody 9103
human C-peptide (human) [34] = assay: ELISA on immobilized C-peptide; labeled antibody 10 ug/ml, free C-peptide 0.1 ug/ml
human proinsulin (human) [35] = target: human proinsulin (human) (UniProt P01308); assay: sandwich immunoassay, two-step, against C-peptide calibration; proinsulin 400 ng/ml; 9101 on particles, labeled antibody CPT-3-F11
human C-peptide (human) [36] = assay: ELISA on immobilized C-peptide; labeled antibody 10 ug/ml, free C-peptide 1.0 ug/ml
human proinsulin (human) [37] = target: human proinsulin (human) (UniProt P01308); assay: sandwich immunoassay, one-step, against C-peptide calibration; proinsulin 50 ng/ml; 9101 on particles, labeled antibody CPT-3-F11
human C-peptide (human) [38] = assay: ELISA on immobilized C-peptide; labeled antibody 1.0 ug/ml, free C-peptide 0 ug/ml
human proinsulin (human) [39] = target: human proinsulin (human) (UniProt P01308); assay: sandwich immunoassay, one-step, against C-peptide calibration; proinsulin 200 ng/ml; 9101 on particles, labeled antibody 9103

UniProt P01308, sequence (P01308 25-110): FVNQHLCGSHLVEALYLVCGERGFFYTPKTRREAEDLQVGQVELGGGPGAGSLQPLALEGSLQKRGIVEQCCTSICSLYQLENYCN

In the case of “anti-human C-peptide monoclonal antibody 9101 (Medix Biochemica)”, the Cross-reactivity (%) to Human Proinsulin (human proinsulin (human) [1]) is reported as 8.4%, the Cross-reactivity (%) to Human Proinsulin (human proinsulin (human) [2]) is reported as 19.7% and the Cross-reactivity (%) to Human Proinsulin (human proinsulin (human) [3]) is reported as 12.8%. For the same substance, the Absorbance (absorbance at 405 nm) (human C-peptide (human) [4]) was 1.98, the Cross-reactivity (%) to Human Proinsulin (human proinsulin (human) [5]) was 17.8% and the Absorbance (absorbance at 405 nm) (human C-peptide (human) [6]) was 0.042. For the same substance, the Binding Ratio (human C-peptide (human) [6]) was 2.5%, the Cross-reactivity (%) to Modified C-peptide [7] was 1.7% and the Binding Ratio (human C-peptide (human) [8]) was 100%. For the same substance, the Absorbance (absorbance at 405 nm) (human C-peptide (human) [9]) was 0.001, the Binding Ratio (human C-peptide (human) [9]) was 0% and the Cross-reactivity (%) to Modified C-peptide [10] was under 0.7%. The Binding Ratio (human C-peptide (human) [11]) was 100%, the 2S/N value (human C-peptide (human) [12]) was 0.222 ng/mL and the Cross-reactivity (%) to Human Proinsulin (human proinsulin (human) [13]) was 11.7%. For the same substance, the Absorbance (absorbance at 405 nm) (human C-peptide (human) [14]) was 0.001, the Binding Ratio (human C-peptide (human) [14]) was 0.1% and the Absorbance (absorbance at 405 nm) (human C-peptide (human) [15]) was 0.141. For the same substance, the Binding Ratio (human C-peptide (human) [15]) was 11.1%, the Absorbance (absorbance at 405 nm) (human C-peptide (human) [16]) was 0 and the Binding Ratio (human C-peptide (human) [16]) was 0%. It also gave a Cross-reactivity (%) to Modified C-peptide [17] of under 0.5%, an Absorbance (absorbance at 405 nm) (human C-peptide (human) [18]) of 1.26 and a Binding Ratio (human C-peptide (human) [19]) of 100%. It also gave a Cross-reactivity (%) to Human Proinsulin (human proinsulin (human) [20]) of 9.8%, an Absorbance (absorbance at 405 nm) (human C-peptide (human) [21]) of 0.298 and a Binding Ratio (human C-peptide (human) [21]) of 17.6%. For the same substance, the Absorbance (absorbance at 405 nm) (human C-peptide (human) [22]) was 0, the Binding Ratio (human C-peptide (human) [22]) was 0% and the 2S/N value (human C-peptide (human) [23]) was 0.11 ng/mL. It also gave a Cross-reactivity (%) to Human Proinsulin (human proinsulin (human) [24]) of 10.7%, an Absorbance (absorbance at 405 nm) (human C-peptide (human) [25]) of 0 and a Binding Ratio (human C-peptide (human) [25]) of 0%. For the same substance, the 2S/N value (human C-peptide (human) [26]) was 0.009 ng/mL, the Absorbance (absorbance at 405 nm) (human C-peptide (human) [27]) was 0 and the Binding Ratio (human C-peptide (human) [27]) was 0%. For the same substance, the Cross-reactivity (%) to Human Proinsulin (human proinsulin (human) [28]) was 11.8%, the Cross-reactivity (%) to Modified C-peptide [29] was 9.3% and the Absorbance (absorbance at 405 nm) (human C-peptide (human) [30]) was 0. The Binding Ratio (human C-peptide (human) [30]) was 0%, the Absorbance (absorbance at 405 nm) (human C-peptide (human) [31]) was 0.013 and the Binding Ratio (human C-peptide (human) [31]) was 1%. It also gave a 2S/N value (human C-peptide (human) [32]) of 0.008 ng/mL, a Cross-reactivity (%) to Human Proinsulin (human proinsulin (human) [33]) of over 15% and an Absorbance (absorbance at 405 nm) (human C-peptide (human) [34]) of 0.331. It also gave a Binding Ratio (human C-peptide (human) [34]) of 17.1%, a Cross-reactivity (%) to Human Proinsulin (human proinsulin (human) [35]) of 12.1% and an Absorbance (absorbance at 405 nm) (human C-peptide (human) [36]) of 0.051. For the same substance, the Binding Ratio (human C-peptide (human) [36]) was 2.6%, the Cross-reactivity (%) to Human Proinsulin (human proinsulin (human) [37]) was 19.6% and the Absorbance (absorbance at 405 nm) (human C-peptide (human) [38]) was 1.69. The Cross-reactivity (%) to Human Proinsulin (human proinsulin (human) [39]) was 18.1%.
